Measured values published in patent publication US20250066826A1, “ARTIFICIAL SYNTHESIS METHOD FOR MALONYL-COENZYME A (COA) AND USE THEREOF” (SHANGHAI JIAO TONG UNIVERSITY, priority 2023, published 2025).

B1: pydD: transaminase from Ureibacillus massiliensis, SEQ ID NO: 71 (protein)
chain: MSDYLSIKEQDKQYVLHSWAKQGSFNPKVIAKAEGVCFWDDAGNRYFDMSSQLVYVNVGHQHPKVLKAFQEIGTYPLAGPSFATKPKSDLSQRIIELAPSNMAKVFYTSGGAEANDHAVKIARMVSGRYKIFSRYRSYHGATFGAGNLTGESRRFAAEPGLPGFVKFEVPYLYREVIDFDSEEAATAYYLGKLRNQILYEGSDTIAAIFIEPIPGSNGVLIPPKGYLEGVRALCDEFGILMICDEVMTGFGRTGKGFAVDHYDFKPDIMTFAKGVTSGYAPLGGVIISEDISRFFDENVLMTGLTYSGHTMCTQIGVANLEVYEEENIFENAEKMGILLKQRLEKLLTFPSIGEIRSIGLFAGVELVKDKATKEPIIQYGLDYGKDPVGLMNKFISMLSANGFYTYSHESTVIIAPPLIITEEQINEAMDIFESTLKQFEKEGLFPEETLSV
modifications: The sequence is synthetized.
B2: CCNA_03245: transaminase from Caulobacter vibrioides, SEQ ID NO: 9 (protein)
chain: MLPMPDFGANDLDAFWMPFTPNRRFKRHPRMLSSASGMWYRTPESREVLDATSGLWCVNAGHDRPKIREAIQKQAAEMDYAPCFNMGHPLAFQFASRLAQITPKGLDRIFFTNSGSESVDTALKIALAYHRARGKGTKTRLIGRERGYHGVGFGGISVGGIPKNRMYFGSLLTGVDHLPHTHGLPGNTCAKGQPENGAHLADDLERIVALHDASNIAAVIVEPVAGSTGVLIPPKGYLERLRAICDKHDILLIFDEVITGFGRVGAPFAAERFGVTPDLICMAKGLTNAAVPCGAVAASGKIYDAMMDGADAPIELFHGYTYSAHPLACAAGLATLETYREDDLFARAAGLEGYWQDAMHSLADARHVVDVRNLGLVAGIELEPRPGAPTARAMEVFETCFDEGLLIRVTGDIIALSPPLILEKDHIDRMVETIRRVLGQVD
modifications: The sequence is synthetized.
B3: PydD2: transaminase from Bacillus megaterium, SEQ ID NO: 10 (protein)
chain: MVQVSQNEKDLRAKDEQYVWHGMKPYSPDATMVATKAKGAWITDEQGNRYLDAMAGLWCVNTGYGRDELALAAYEQLKELAYFPLTQSHVPAIKLAEKLNEMLGDDYVIFFSNSGSEANETAFKIVRQYHQQKGEHSRYKFISRYRGYHGNSMGALAATGQAQRKYKYEPLAPGFIHVAPPDSYRGQDDYDAPKEQLQSVKDIDNVMTWELSETIAAVIMEPIITGGGILLPPQNYMKGVKETCEKHGALLIADEVICGFGRTGEAFGFMNYDVKPDIITMAKGITSAYLPLSATAVKKEIYEAFKDSDQYEYFRHVNTFGGSPAACALALKNLEIMERENLFDRSKQLGAYVLSELTPLIDSHPYVGDVRGKGLLIGIELVADKQTKEPLDVNLVNEVVAKCKSKGVIIGKNGATVAGYNNVLTLSPPLNIEESDIELLLATITYALDSIK
modifications: The sequence is synthetized.
B4: Pyd4: transaminase from Saccharomyces kluyveri, SEQ ID NO: 72 (protein)
chain: MPSYSVAELYYPDEPTEPKISTSSYPGPKAKQELEKLSNVFDTRAAYLLADYYKSRGNYIVDQDGNVLLDVYAQISSIALGYNNPEILKVAKSDAMSVALANRPALACFPSNDYGQLLEDGLLKAAPQGQDKIWTALSGSDANETAFKACFMYQAAKKRNGRSFSTEELESVMDNQLPGTSEMVICSFEKGFHGRLFGSLSTTRSKPIHKLDIPAFNWPKAPFPDLKYPLEENKEANKAEESSCIEKFSQIVQEWQGKIAAVIIEPIQSEGGDNHASSDFFQKLREITIENGILMIVDEVQTGVGATGKMWAHEHWNLSNPPDLVTFSKKFQAAGFYYHDPKLQPDQPFRQFNTWCGDPSKALIAKVIYEEIVKHDLVTRTAEVGNYLFNRLEKLFEGKNYIQNLRGKGQGTYIAFDFGTSSERDSFLSRLRCNGANVAGCGDSAVRLRPSLTFEEKHADVLVSIFDKTLRQLYG
modifications: The sequence is synthetized.
B5: MCR-C: oxidoreductase (malonyl-CoA reductase) from Chloroflexus aurantiacu, SEQ ID NO: 70 (protein)
chain: SATTGARSASVGWAESLIGLHLGKVALITGGSAGIGGQIGRLLALSGARVMLAARDRHKLEQMQAMIQSELAEVGYTDVEDRVHIAPGCDVSSEAQLADLVERTLSAFGTVDYLINNAGIAGVEEMVIDMPVEGWRHTLFANLISNYSLMRKLAPLMKKQGSGYILNVSSYFGGEKDAAIPYPNRADYAVSKAGQRAMAEVFARFLGPEIQINAIAPGPVEGDRLRGTGERPGLFARRARLILENKRLNELHAALIAAARTDERSMHELVELLLPNDVAALEQNPAAPTALRELARRFRSEGDPAASSSSALLNRSIAAKLLARLHNGGYVLPADIFANLPNPPDPFFTRAQIDREARKVRDGIMGMLYLQRMPTEFDVAMATVYYLADRVVSGETFHPSGGLRYERTPTGGELFGLPSPERLAELVGSTVYLIGEHLTEHLNLLARAYLERYGARQVVMIVETETGAETMRRLLHDHVEAGRLMTIVAGDQIEAAIDQAITRYGRPGPVVCTPFRPLPTVPLVGRKDSDWSTVLSEAEFAELCEHQLTHHFRVARWIALSDGARLALVTPETTATSTTEQFALANFIKTTLHAFTATIGVESERTAQRILINQVDLTRRARAEEPRDPHERQQELERFIEAVLLVTAPLPPEADTRYAGRIHRGRAITV
modifications: The sequence is synthetized.
B6: YhxA: transaminase from Bacillus cereus, SEQ ID NO: 11 (protein)
chain: MELMIVQVTEQTQSLKKTDEKYLWHAMRGAAPSPTNLIITKAEGAWVTDIDGNRYLDGMSGLWCVNVGYGRKELARAAFEQLEEMPYFPLTQSHVPAIKLAEKLNEWLDDEYVIFFSNSGSEANETAFKIARQYHQQKGDHGRYKFISRYRAYHGNSMGALAATGQAQRKYKYEPLGQGFLHVAPPDTYRNPEDVHTLASAEEIDRVMTWELSQTVAGVIMEPIITGGGILMPPDGYMEKVKEICEKHGALLICDEVICGFGRTGKPFGFMNYGVKPDIITMAKGITSAYLPLSATAVRREVYEAFVGSDDYDRFRHVNTFGGNPAACALALKNLEIMENEKLIERSKELGERLLYELEDVKEHPNVGDVRGKGLLLGIELVEDKQTKEPASIEKMNKVINACKEKGLIIGKNGDTVAGYNNILQLAPPLSITEEDFTFIVKTMKECLAQL
modifications: The sequence is synthetized.
B7: Msed_0709: oxidoreductase from Metallosphaera sedula, SEQ ID NO: 13 (protein)
chain: MRRTLKAAILGATGLVGIEYVRMLADHPYIKPTYLAGKGSVGKPYGEIVRWQTVGNVPKEVANQEVKPTDPKLMDDVDIIFSPLPQGAAGPVEEQFAKLGFNVISNSPDHRFDMDVPMIIPEVNPHTVTLIDEQRKRRDWKGFIVTTPLCTAQGAAIPLTPIYQNFKMSGVMITTMQSLSGAGYPGIASLDIVDNALPLGDGYDAKTVKEITRILSEVKRNVQEPGVNEITLDATTHRIATIHGHYEVAYVTFKEDTDVRKVMESMESFKGEPQDLKLPTAPEKPIIVTTQDARPQVFFDRWAGNPPGMSVVVGRLKQVNPRTIRFVSLIHNTVRGAAGGGVLTAELLVEKGYIDKR
modifications: The sequence is synthetized.
B8: AptA: transaminase from Acinetobacter pittii, SEQ ID NO: 8 (protein)
chain: MVMFDTDKFSDSEHTLDAVQPNNNMYINYQAHWMPFSANRNFAKDPRMIVGAKGSYLIDDSGREIYDSLSGLWTCGAGHTLPEIQQAVSAQLGQLDYSPAFQFGHPLSFKLADKIVQHMPEKLQHVFFTNSGSESADTAIKMARAYWRIKGKPSKTKLIGRARGYHGVNVAGTSLGGIGGNRKMFGQLMDVDHLPHTLQPNLTFTKGCAETGGVELANEMLKLIELHDASNIAAVIVEPISGSAGCIVPPTGYLQRLREICDQHDILLIFDEVITGFGRLGTWTGAEYFGVTPDILNFAKQVTNGAIPLGGVVASHEIYSAFMQQELPEHAIEFTHGYTYSAHPVACAAALAALEVLEKKNLLAQSAALAPSFEKMLHGLKGAPHVLDIRNCGLIGALQLAPRDGDATIRGFELGMKLWKEGFYVRFGGDTLQFGPMFNGTEADIDRLMNAVGDALYQVN
modifications: The sequence is synthetized.
B9: BauA: transaminase from Pseudomonas aeruginosa, amino acid sequence SEQ ID NO: 7 (protein)
chain: MNQPLNVAPPVSSELNLRAHWMPFSANRNFQKDPRIIVAAEGSWLTDDKGRKVYDSLSGLWTCGAGHSRKEIQEAVARQLGTLDYSPGFQYGHPLSFQLAEKIAGLLPGELNHVFFTGSGSECADTSIKMARAYWRLKGQPQKTKLIGRARGYHGVNVAGTSLGGIGGNRKMFGQLMDVDHLPHTLQPGMAFTRGMAQTGGVELANELLKLIELHDASNIAAVIVEPMSGSAGVLVPPVGYLQRLREICDQHNILLIFDEVITAFGRLGTYSGAEYFGVTPDLMNVAKQVTNGAVPMGAVIASSEIYDTFMNQALPEHAVEFSHGYTYSAHPVACAAGLAALDILARDNLVQQSAELAPHFEKGLHGLQGAKNVIDIRNCGLAGAIQIAPRDGDPTVRPFEAGMKLWQQGFYVRFGGDTLQFGPTFNARPEELDRLFDAVGEALNGIA
modifications: The sequence is synthetized.

Tests used:
Format in all cases: biochemical
[1] = Transaminase activity test using α-ketoglutaric acid as a substrate; settings: 5 mM α-ketoglutaric acid, 5 mM β-alanine, 10 M purified transaminase, 10 M MCR-C, pH 7.8, 37° C.
[2] = Transaminase activity test using pyruvic acid as a substrate (coupled with MCR-C, NADPH at 340 nm); settings: 5 mM pyruvic acid, 5 mM β-alanine, 2.5 mM NADP+, 2.5 mM CoA, 1 M purified transaminase, 10 M MCR-C, pH 7.8, 37° C.
Description: It can be seen that the BauA has the best effect (FIG. 4A).

[3] = Transaminase activity test using oxaloacetic acid as a substrate; settings: 5 mM oxaloacetic acid, 5 mM β-alanine, 10 M purified transaminase, 10 M MCR-C, pH 7.8, 37° C.
[4] = Oxidoreductase activity test (coupled with BauA, increase at 340 nm); settings: 1 M purified oxidoreductase, 37° C.; for activity of the target enzyme (in words): in-vitro reaction with 10 M BauA
Description: Oxidoreductase activity test: in-vitro reaction was carried out in a total reaction volume of 200 μL, containing 100 mM Tris buffer (pH 7.8), 2 mM MgCl2, 3 mM DTT, 5 mM pyruvic acid, 5 mM 3-alanine, 2.5 mM NADP^+, 2.5 mM CoA, 10 M BauA, and 1 M purified oxidoreductase, the reaction mixture was cultured at 37° C., and the increase in 340 nm was monitored.

| Molecule | activity of the transaminases [2] [µmol/min/mg] | activity of the transaminases [3] [µmol/min/mg] | further results |
| --- | --- | --- | --- |
| B1 | – | – | activity of the transaminases [1]: 0.825 µmol/min/mg |
| B2 | 0.13 | – | – |
| B3 | 0.96 | 0.49 | – |
| B4 | – | – | activity of the transaminases [1]: 1.15 µmol/min/mg |
| B5 | – | – | oxidoreductase activity ([4]; 5 mM pyruvic acid, 5 mM alanine, 2.5 mM NADP+, 2.5 mM CoA, 10 M BauA): 2.0 µmol/min/mg; activity of the target enzyme (in words) [4]: exhibit the activity of the target enzyme |
| B6 | 0.15 | – | – |
| B7 | – | – | activity of the target enzyme (in words) [4]: exhibit the activity of the target enzyme |
| B8 | 0.90 | 0.42 | – |
| B9 | 1.60 | 0.46 | – |
